Experimental data taken from patent US20030026800A1.

Legend:
[1] = target: antigen of Daudi B lymphoblastoid cells to which the mAbs of the invention bind; assay: FACS double labelling, peripheral blood lymphocytes of healthy individuals
[2] = target: antigen of Daudi B lymphoblastoid cells to which the mAbs of the invention bind; assay: FACS double labelling, peripheral blood lymphocytes of colon carcinoma patients
[3] = target: antigen of Daudi B lymphoblastoid cells to which the mAbs of the invention bind; assay: FACS double labelling, peripheral blood lymphocytes of breast carcinoma patients
[4] = target: antigen of Daudi B lymphoblastoid cells to which the mAbs of the invention bind; assay: FACS double labelling, peripheral blood lymphocytes of prostate carcinoma patients

percent of CD3+ BAT+ cells (of total CD3+ cells) [1]: 25%
percent of CD3+ BAT+ cells (of total CD3+ cells) [2]: 7%
percent of CD3+ BAT+ cells (of total CD3+ cells) [3]: 10%
percent of CD3+ BAT+ cells (of total CD3+ cells) [4]: 50%
B1: mouse BAT antibody (antibody, V domains shown)
VH: QIQLVQSGPELKKPGETVKISCKASGYTFTNYGMNWVKQAPGKGLKWMGWINTDSGESTYAEEFKGRFAFSLETSANTAYLQINNLNNEDTATYFCVRVGYDALDYWGQGTSVTVSS
VL: QIVLTQSPAIMSASPGEKVTITCSARSSVSYMHWFQQKPGTSPKLWIYRTSNLASGVPARFSGSGSGTSYCLTISRMEAEDAATYYCQQRSSFPLTFGSGTKLEIK
